For one data set, the system named is C=C(OP(=O)(O)O)C(=O)O. Nature of the data set: purified protein.
For data set [1], the target named is T1, 3-deoxy-D-arabino-heptulosonate 7-phosphate synthase (MtuDAH7PS) (Mycobacterium tuberculosis, UniProt O53512).
T1 construct: gene aroG; chain length 464 residues, homotetramer
Nature of the data set: X-ray crystal structure (with D/L-Trp). The data set is classed as binding.

This note sets out measurements from publication PMC4851294 (PLoS ONE, 2016).

T1 sequence (O53512 whole entry): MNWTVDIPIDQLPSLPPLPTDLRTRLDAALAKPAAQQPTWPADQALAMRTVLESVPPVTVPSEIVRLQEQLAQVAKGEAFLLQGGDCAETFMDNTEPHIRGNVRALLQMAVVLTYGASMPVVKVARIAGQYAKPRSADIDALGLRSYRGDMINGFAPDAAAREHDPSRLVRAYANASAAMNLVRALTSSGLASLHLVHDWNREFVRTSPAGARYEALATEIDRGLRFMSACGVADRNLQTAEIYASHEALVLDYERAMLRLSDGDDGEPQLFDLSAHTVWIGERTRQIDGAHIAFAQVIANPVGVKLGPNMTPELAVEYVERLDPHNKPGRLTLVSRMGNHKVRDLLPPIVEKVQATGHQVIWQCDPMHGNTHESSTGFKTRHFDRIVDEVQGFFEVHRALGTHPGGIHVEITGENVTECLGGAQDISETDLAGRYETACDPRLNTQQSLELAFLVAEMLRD

One may read the Km as the substrate concentration at which the rate is half of its maximum. Usually kcat stands for the number of substrate molecules converted per active site and unit of time at saturation. For orientation: kcat/Km means the second-order rate constant that governs catalysis at low substrate concentration. Regarding “3-deoxy-D-arabino-heptulosonate 7-phosphate synthase (MtuDAH7PS) (Mycobacterium tuberculosis H37Rv)”, in the data set on C=C(OP(=O)(O)O)C(=O)O, the Km is 37 ± 4 µM, the kcat worked out at 4.7 ± 0.1 s⁻¹ and the kcat/Km turned out to be 130000 ± 20000 M⁻¹ s⁻¹.
For `N[C@@H](Cc1ccccc1)C(=O)O` [L-Phe], the “X-ray crystal structure (with D/L-Trp)” value in data set [1] is “The Phe site in the structure obtained from these soaking conditions is occupied by L-Phe”.
